Data on two molecules can be found in PMC3970758, “A conserved MCM single-stranded DNA binding element is essential for replication initiation”.

Data set [1] concerns the target T1, PfMCMN R186A (Pyrococcus furiosus, UniProt Q8U3I4 1-256, R186A).
T1 sequence: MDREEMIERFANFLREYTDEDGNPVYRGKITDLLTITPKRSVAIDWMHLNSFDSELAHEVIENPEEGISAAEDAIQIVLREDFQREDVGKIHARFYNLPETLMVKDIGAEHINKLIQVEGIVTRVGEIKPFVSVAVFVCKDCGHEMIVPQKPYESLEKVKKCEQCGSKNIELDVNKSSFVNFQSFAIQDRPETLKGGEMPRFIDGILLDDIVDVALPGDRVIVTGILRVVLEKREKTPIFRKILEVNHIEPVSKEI
Put plainly: EMSA; 5 mM Mg2+; EMSA: 20 mM HEPES pH 7.6, 200 mM NaCl, 5 mM MgCl2, 5 mM bME, 25 C, 30 min, 160 nM DNA; 4-20% TBE PAGE. As to conditions: protein: recombinant; tags: His6-SUMO removed by Ulp1; label: 5'-fluorescein on strand 1; blunt. (In general: Mobility shift assays separate free from complexed probe on a gel.)

Data set [2] has as its target T2, PfMCMN R124A (Pyrococcus furiosus, UniProt Q8U3I4 1-256, R124A).
T2 sequence: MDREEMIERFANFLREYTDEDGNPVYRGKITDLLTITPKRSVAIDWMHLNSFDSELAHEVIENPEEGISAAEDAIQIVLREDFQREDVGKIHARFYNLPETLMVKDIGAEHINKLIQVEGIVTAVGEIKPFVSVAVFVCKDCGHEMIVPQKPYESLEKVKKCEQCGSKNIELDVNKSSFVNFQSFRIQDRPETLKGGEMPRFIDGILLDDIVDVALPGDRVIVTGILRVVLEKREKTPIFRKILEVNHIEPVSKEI
The description is as above. As to conditions: protein: recombinant; tags: His6-SUMO removed by Ulp1; label: 5'-fluorescein on strand 1; blunt.

In data set [3] the target is T3, PfMCMN K129A (Pyrococcus furiosus, UniProt Q8U3I4 1-256, K129A).
T3 sequence: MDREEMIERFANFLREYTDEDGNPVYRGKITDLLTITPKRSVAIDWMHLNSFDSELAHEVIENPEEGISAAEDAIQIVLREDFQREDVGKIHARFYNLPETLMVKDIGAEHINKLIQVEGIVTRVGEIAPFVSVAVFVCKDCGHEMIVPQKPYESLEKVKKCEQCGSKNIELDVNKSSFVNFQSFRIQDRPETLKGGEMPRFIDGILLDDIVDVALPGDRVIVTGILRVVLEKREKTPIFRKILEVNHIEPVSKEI
The description is as above. Particulars: protein: recombinant; tags: His6-SUMO removed by Ulp1; label: 5'-fluorescein on strand 1; blunt.

Data set [4] addresses T4, PfMCMN R124A/R186A (Pyrococcus furiosus, UniProt Q8U3I4 1-256, R124A;R186A).
T4 sequence: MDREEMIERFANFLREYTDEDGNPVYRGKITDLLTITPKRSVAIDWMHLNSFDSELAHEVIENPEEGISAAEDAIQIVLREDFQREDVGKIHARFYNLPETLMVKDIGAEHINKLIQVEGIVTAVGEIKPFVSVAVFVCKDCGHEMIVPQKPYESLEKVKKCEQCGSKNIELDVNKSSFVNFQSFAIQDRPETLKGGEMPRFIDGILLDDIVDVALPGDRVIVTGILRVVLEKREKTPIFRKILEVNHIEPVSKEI
Put plainly: EMSA; 5 mM Mg2+; protein 10-40 uM; EMSA: 20 mM HEPES pH 7.6, 200 mM NaCl, 5 mM MgCl2, 5 mM bME, 25 C, 30 min, 160 nM DNA; 4-20% TBE PAGE. Particulars: protein: recombinant; tags: His6-SUMO removed by Ulp1; label: 5'-fluorescein on strand 1; blunt.

For data set [5], the target named is T5, PfMCMN K233A (Pyrococcus furiosus, UniProt Q8U3I4 1-256, K233A).
T5 sequence: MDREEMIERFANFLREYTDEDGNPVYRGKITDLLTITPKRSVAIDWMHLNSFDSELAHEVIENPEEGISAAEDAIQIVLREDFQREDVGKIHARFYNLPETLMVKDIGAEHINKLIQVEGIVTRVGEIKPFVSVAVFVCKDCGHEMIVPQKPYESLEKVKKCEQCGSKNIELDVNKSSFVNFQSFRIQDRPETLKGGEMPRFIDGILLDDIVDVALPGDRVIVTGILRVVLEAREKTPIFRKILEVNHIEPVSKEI
Put plainly: EMSA; 5 mM Mg2+; EMSA: 20 mM HEPES pH 7.6, 200 mM NaCl, 5 mM MgCl2, 5 mM bME, 25 C, 30 min, 160 nM DNA; 4-20% TBE PAGE. Particulars: protein: recombinant; tags: His6-SUMO removed by Ulp1; label: 5'-fluorescein.

Data set [6] has as its target T6, PfMCMN F202A (Pyrococcus furiosus, UniProt Q8U3I4 1-256, F202A).
T6 sequence: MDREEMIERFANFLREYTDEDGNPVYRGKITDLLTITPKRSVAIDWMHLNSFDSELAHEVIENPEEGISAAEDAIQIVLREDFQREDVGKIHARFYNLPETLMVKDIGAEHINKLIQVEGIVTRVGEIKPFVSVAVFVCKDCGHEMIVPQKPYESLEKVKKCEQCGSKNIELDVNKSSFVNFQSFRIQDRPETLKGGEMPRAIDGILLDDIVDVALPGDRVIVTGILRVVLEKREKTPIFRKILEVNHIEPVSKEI
The data set is described as above. Particulars: protein: recombinant; tags: His6-SUMO removed by Ulp1; label: 5'-fluorescein.

In data set [7] the target is T1, PfMCMN R186A. Described as above. As to conditions: protein: recombinant; tags: His6-SUMO removed by Ulp1; label: 5'-fluorescein.
For data set [8], the target named is T2, PfMCMN R124A. The description is as above. Particulars: protein: recombinant; tags: His6-SUMO removed by Ulp1; label: 5'-fluorescein.
Data set [9] has as its target T3, PfMCMN K129A. The data set is described as above. Particulars: protein: recombinant; tags: His6-SUMO removed by Ulp1; label: 5'-fluorescein.
The target of data set [10] is T4, PfMCMN R124A/R186A. Nature of the data set: EMSA; 5 mM Mg2+; protein 54-270 uM; EMSA: 20 mM HEPES pH 7.6, 200 mM NaCl, 5 mM MgCl2, 5 mM bME, 25 C, 30 min, 160 nM DNA; 4-20% TBE PAGE. As to conditions: protein: recombinant; tags: His6-SUMO removed by Ulp1; label: 5'-fluorescein.

B1: 26-mer dsDNA (dsDNA)
DNA 1: ATGGCAGATCTCAATTGGATATCGGC
DNA 2: GCCGATATCCAATTGAGATCTGCCAT
For B1, the binding result in data set [1], in data set [2] and in data set [3] was “binds” each time. Also, in data set [4], the binding signal was determined as 3 fold reduction vs WT.

B2: T40 ssDNA (ssDNA)
DNA: TTTTTTTTTTTTTTTTTTTTTTTTTTTTTTTTTTTTTTTT
Regarding B2, the binding result in data set [5] and in [6] was “binds” in each case. Moreover, the binding signal in data set [7] came out at 6 fold reduction vs WT; in data set [8] it was 7 fold reduction vs WT; in data set [9], 4 fold reduction vs WT; in data set [10], 25 fold reduction vs WT.
